Laboratory results reported in patent US20110098212A1 (LONDON SCHOOL OF HYGIENE AND TROPICAL MEDICINE, published 2011).

T1: chemokine receptor CCR1 (human, UniProt P32246 1-355)
T1 sequence (looked up): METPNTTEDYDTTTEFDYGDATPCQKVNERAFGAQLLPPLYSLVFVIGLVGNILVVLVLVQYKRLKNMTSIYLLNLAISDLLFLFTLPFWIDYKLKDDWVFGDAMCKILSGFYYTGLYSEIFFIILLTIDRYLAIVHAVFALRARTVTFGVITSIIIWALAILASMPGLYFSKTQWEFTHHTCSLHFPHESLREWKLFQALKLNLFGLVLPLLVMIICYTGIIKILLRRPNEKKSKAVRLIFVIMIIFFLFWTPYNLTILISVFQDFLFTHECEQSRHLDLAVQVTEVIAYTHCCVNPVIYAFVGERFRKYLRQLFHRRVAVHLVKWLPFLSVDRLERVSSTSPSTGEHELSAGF

T2: chemokine receptor CCR4 (human, UniProt P51679 1-360)
T2 sequence (looked up): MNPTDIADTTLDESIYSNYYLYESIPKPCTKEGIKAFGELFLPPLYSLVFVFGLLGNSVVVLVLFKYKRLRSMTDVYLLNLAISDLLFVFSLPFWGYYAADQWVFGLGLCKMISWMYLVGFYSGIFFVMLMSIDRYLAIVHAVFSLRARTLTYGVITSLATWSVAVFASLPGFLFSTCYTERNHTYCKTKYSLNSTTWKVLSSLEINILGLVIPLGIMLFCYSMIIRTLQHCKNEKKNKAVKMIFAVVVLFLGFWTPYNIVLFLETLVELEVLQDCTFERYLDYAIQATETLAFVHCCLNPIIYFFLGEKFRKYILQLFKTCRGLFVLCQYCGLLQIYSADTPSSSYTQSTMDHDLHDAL

T3: chemokine receptor CCR6 (human, UniProt P51684 1-374)
T3 sequence (looked up): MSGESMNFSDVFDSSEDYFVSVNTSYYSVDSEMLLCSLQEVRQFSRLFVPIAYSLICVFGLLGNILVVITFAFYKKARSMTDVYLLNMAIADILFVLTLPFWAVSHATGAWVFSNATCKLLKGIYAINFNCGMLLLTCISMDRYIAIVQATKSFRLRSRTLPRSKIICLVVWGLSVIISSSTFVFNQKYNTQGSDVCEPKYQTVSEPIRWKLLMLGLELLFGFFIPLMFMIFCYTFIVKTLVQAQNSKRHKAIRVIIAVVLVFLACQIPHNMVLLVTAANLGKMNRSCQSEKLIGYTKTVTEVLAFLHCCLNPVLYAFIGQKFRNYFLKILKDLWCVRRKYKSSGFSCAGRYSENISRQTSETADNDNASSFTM

B1: CCL3/MIP-1alpha (ligand, human, UniProt P10147 27-92, looked up)
chain: ADTPTACCFSYTSRQIPQNFIADYFETSSQCSKPGVIFLTKRSRQVCADPSEEWVQKYVSDLELSA
B2: HHV-6 U83A, native full length mature chemokine (ligand)
chain: FICSSPDAELFSEKSRMSSSVLLGCLLCCMDWSAAVPGKTEPFRKLFDAIMIKKLKSCSAAYPSDLEQGSMCDMADASPTSLELGLSKLDKES

Experiments:
[1] = molecular target: T1, chemokine receptor CCR1; assay: cell-based or functional assay
[2] = molecular target: human chemokine receptor CCR5 (human, UniProt P51681 1-352)
[3] = molecular target: T2, chemokine receptor CCR4; assay: cell-based or functional assay
[4] = molecular target: T3, chemokine receptor CCR6; assay: cell-based or functional assay
[5] = molecular target: chemokine receptor CCR8 (human, UniProt P51685 1-355); assay: cell-based or functional assay

Sequence of human chemokine receptor CCR5 (P51681 whole entry): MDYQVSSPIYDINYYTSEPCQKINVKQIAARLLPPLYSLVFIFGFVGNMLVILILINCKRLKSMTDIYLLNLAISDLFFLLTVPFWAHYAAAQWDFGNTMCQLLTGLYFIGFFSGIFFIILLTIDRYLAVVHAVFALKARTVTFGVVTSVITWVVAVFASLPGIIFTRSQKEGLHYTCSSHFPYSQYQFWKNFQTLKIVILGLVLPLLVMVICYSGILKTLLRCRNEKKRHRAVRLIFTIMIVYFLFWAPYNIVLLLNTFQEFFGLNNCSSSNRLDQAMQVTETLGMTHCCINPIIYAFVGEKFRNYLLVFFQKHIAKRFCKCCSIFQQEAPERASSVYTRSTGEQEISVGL

Binder	EC50, calcium mobilisation in CCR1-CHO cells [1]	IC50 [2]	calcium mobilisation at 10 nM U83A, percent of the response to endogenous ligand [1]	minimal effective dose, calcium mobilisation [1]	EC50, calcium mobilisation in CCR4-CHO cells [3]	calcium mobilisation at 10 nM U83A, percent of the response to endogenous ligand [3]	calcium mobilisation at 100 nM U83A, percent of the response to endogenous ligand [3]	minimal effective dose, calcium mobilisation [3]	EC50, calcium mobilisation in CCR6-CHO cells [4]	calcium mobilisation at 10 nM U83A, percent of the response to endogenous ligand [4]	calcium mobilisation at 100 nM U83A, percent of the response to endogenous ligand [4]	minimal effective dose, calcium mobilisation [4]	EC50, calcium mobilisation in CCR8-CHO cells [5]	calcium mobilisation at 10 nM U83A, percent of the response to endogenous ligand [5]	calcium mobilisation at 100 nM U83A, percent of the response to endogenous ligand [5]
B1	2.75 nM	–	–	–	–	–	–	–	–	–	–	–	–	–	–
B2	9.17 nM	0.11 nM	60%	7.5 nM	8.96 nM	50%	84%	7.5 nM	10.3 nM	35%	80%	7.5 nM	6.42 nM	65%	85%
